Assay results taken from publication PMC6817910, “Aspartate/asparagine-β-hydroxylase crystal structures reveal an unexpected epidermal growth factor-like domain substrate disulfide pattern” (Nature Communications, 2019).
Numbering of substitutions follows the chain as printed. One block for each binder: values may come before it. Bridge positions count the residues as written; N and C are the ends. Ends that are not written are not given here.

Biological target: T1, N-terminally His6-tagged AspH_(315–758) (human aspartate/asparagine-β-hydroxylase, TPR and oxygenase domains) (human, UniProt Q12797 315-758)
T1 construct: human aspartate/asparagine-β-hydroxylase (AspH), residues 315-758: TPR domain (aa 330-555), hinge-loop region (aa 556-577) and 2OG oxygenase domain; pET-28a(+) construct; crystallised with Mn(II) in place of Fe(II) and N-oxalylglycine (NOG); also called AspH-TPR-Ox; His6-AspH_(315–758); not shown: His6, N-terminal, kept
T1 sequence (looked up): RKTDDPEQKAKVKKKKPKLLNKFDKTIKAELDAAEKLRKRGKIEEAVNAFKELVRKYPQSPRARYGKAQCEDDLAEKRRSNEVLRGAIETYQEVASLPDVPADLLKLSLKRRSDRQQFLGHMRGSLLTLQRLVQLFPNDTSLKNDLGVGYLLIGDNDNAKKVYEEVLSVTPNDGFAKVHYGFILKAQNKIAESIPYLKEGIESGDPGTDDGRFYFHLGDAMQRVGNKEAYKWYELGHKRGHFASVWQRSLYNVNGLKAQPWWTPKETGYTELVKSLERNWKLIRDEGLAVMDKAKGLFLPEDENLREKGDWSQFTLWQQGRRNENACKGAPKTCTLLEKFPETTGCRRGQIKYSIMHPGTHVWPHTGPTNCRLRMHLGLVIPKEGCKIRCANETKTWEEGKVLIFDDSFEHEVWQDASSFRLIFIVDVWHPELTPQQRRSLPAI
Experiment: crystal structure; N-terminally His6-tagged AspH_(315–758) (18 mg/mL in 50 mM HEPES, pH 7.5) mixed with 1 mM MnCl2, 2 mM N-oxalylglycine and the AspH-substrate; co-crystallised by vapour diffusion at 4 °C in sitting drops
Conditions: both partners purified

binding result: binds
B1: hFX EGF1_(39mer), N-terminal EGF-like domain of human coagulation factor X (aa 86–124) (peptide, UniProt P00742 86-124, looked up)
peptide: DGDQCETSPCQNQGKCKDGLGEYTCTCLEGFEGKNCELF
modifications: disulfide 27-36; not fully specified (C-terminus); also: mixture of canonical (Cys1–3, 2–4) and non-canonical (Cys1–2, 3–4) isomers, crystal: Cys101–Cys110
notes: human coagulation factor X, first EGF-like domain, aa 86-124; The peptide batch is a mixture of disulfide isomers; also called NC_(39mer) peptide (the non-canonical disulfide isomer seen in the crystal); 39-residue fragment of hFX EGF1

binding result: binds
B2: NC-4Ser_(39mer), hFX EGF1_(39mer) with cysteines 1, 2, 5 and 6 (aa 90, 95, 112 and 121) replaced by serines (peptide, UniProt P00742 86-124, looked up)
peptide: B1 peptide with C5S, C10S, C27S, C36S
modifications: disulfide 16-25
notes: human coagulation factor X, first EGF-like domain, aa 86-124, with Cys90, 95, 112 and 121 substituted for Ser; also called NC-Ser_(39mer); NC-4Ser_(39mer) peptide; source: synthetic peptide (GL Biochem (Shanghai) Ltd, single disulfide isomer)

binding result: binds
B3: NC_(26mer), truncated 26mer hFX EGF1 substrate (aa 86–111) with the non-canonical disulfide arrangement (Cys1–2, 3–4) (peptide, UniProt P00742 86-111, looked up)
peptide: DGDQCETSPCQNQGKCKDGLGEYTCT
modifications: disulfide 5-10, 16-25
notes: human coagulation factor X, first EGF-like domain, aa 86-111, lacking the Cys5–6 disulfide-forming residues; also called NC_(26mer) peptide; source: synthetic peptide (GL Biochem (Shanghai) Ltd, orthogonal cysteine protection, single disulfide isomer)
